Biological target: HLA-A*0201 molecules on the surface of T2 cells (human (endogenous in T2) | human)
Test: flow cytometry on cells

Work on “HTNV nucleoprotein peptide FA9 (aa129–aa137, …)” yielded a fluorescent index (FI) of 2.77.

— PMC4976285
